Like-named read-outs stand apart in the source and are kept apart here.
Columns and labels:
Test in all cases: SDS-PAGE
recombinant NaK channel [1] = molecular target: recombinant NaK channel
recombinant NaK channel [2] = molecular target: recombinant NaK channel; remark: listed apart in the source
[3] = molecular target: semisynthetic NaK channel (residues 19-110)

recombinant NaK channel (natural protein)
stoichiometry N (recombinant NaK channel [1]): 4
stoichiometry N (recombinant NaK channel [2]): 4

semisynthetic NaK channel (residues 19-110) (natural protein)
stoichiometry N [3]: 4

Reference: publication PMC2889250
